Consider five molecules from article PMC11008601, “Motor properties of Myosin 5c are modulated by tropomyosin isoforms and inhibited by pentabromopseudilin” (Frontiers in Physiology, 2024).

For one assay, the target named is T1, Myo5c–HMM (Homo sapiens, UniProt Q9NQX4).
T1 construct: heavy meromyosin fragment, residues 1-1108 (motor domain, six IQ motifs, coiled coil), C-terminal Flag tag, co-produced with light chains in baculovirus/Sf9, anti-FLAG purification; dimer; six CaM per heavy chain when co-produced with CaM only; with Calmodulin-1
The assay is described as follows: NADH-coupled steady-state actin-activated ATPase assay, dose-response fit. The assay is classed as biochemical.

The target of assay [1] is F–actin (bare actin filaments) (not stated (human β–actin or chicken α–skeletal actin prepared)) (UniProt P60709).
For assay [2], the target named is cofilaments of actin and Tpm1.6 (not stated (human β–actin or chicken α–skeletal actin prepared) | human) (UniProt P60709).
Assay [3] deals with cofilaments of actin and Tpm3.1 (not stated (human β–actin or chicken α–skeletal actin prepared) | human) (UniProt P60709).
In assay [4] the target is cofilaments of actin and Tpm1.8 (not stated (human β–actin or chicken α–skeletal actin prepared) | human) (UniProt P60709).
Assay [5] addresses Myo5c–HMM heavy chain (human Myo5c, amino acids 1–1108, C-terminal Flag) (human) (UniProt Q9NQX4). Put plainly: co-purification on anti-FLAG affinity resin, Coomassie gel and immunoblot; Myo5c–HMM-Flag co-produced with CaM alone in Sf9; lysate on anti-FLAG-M2 resin 2 h at 4°C, washed with 500 mM NaCl and 2 mM ATP, then 100 mM NaCl, eluted with FLAG peptide; blot with anti-Flag and anti-CaM; ratio from the gel. Background: A western blot detects proteins with antibodies after separation by electrophoresis.

Assay [6] shares this target. The assay is described as follows: co-purification on anti-FLAG affinity resin, Coomassie gel and immunoblot; Myo5c–HMM-Flag co-produced with CaM, RLC (Myl12b) and ELC (Myl6) in Sf9; lysate on anti-FLAG-M2 resin 2 h at 4°C, washed with 500 mM NaCl and 2 mM ATP, then 100 mM NaCl, eluted with FLAG peptide; blot with anti-Myl12b, anti-CaM, anti-Myl6; ratios from the Coomassie-stained gel.

Assay [7] concerns the target T2, Myo5c–HMM heavy chain (human Myo5c, amino acids 1–1108, C-terminal Flag) (human, UniProt Q9NQX4 1-1108).
T2 construct: human myosin 5c (Myo5c) heavy chain, amino acids 1-1108 (motor domain, neck with IQ motifs, part of the coiled coil), Uniprot-ID Q9NQX4; Cloned in pFastBac Dual under the polyhedrin promotor; also called heavy meromyosin fragment of the Myo5c heavy chain; source: baculovirus/Sf9, co-produced with light chains; not shown: Flag, C-terminal, kept
The description is as above. As to conditions: partners not purified.

T2 sequence (Q9NQX4 1-1108): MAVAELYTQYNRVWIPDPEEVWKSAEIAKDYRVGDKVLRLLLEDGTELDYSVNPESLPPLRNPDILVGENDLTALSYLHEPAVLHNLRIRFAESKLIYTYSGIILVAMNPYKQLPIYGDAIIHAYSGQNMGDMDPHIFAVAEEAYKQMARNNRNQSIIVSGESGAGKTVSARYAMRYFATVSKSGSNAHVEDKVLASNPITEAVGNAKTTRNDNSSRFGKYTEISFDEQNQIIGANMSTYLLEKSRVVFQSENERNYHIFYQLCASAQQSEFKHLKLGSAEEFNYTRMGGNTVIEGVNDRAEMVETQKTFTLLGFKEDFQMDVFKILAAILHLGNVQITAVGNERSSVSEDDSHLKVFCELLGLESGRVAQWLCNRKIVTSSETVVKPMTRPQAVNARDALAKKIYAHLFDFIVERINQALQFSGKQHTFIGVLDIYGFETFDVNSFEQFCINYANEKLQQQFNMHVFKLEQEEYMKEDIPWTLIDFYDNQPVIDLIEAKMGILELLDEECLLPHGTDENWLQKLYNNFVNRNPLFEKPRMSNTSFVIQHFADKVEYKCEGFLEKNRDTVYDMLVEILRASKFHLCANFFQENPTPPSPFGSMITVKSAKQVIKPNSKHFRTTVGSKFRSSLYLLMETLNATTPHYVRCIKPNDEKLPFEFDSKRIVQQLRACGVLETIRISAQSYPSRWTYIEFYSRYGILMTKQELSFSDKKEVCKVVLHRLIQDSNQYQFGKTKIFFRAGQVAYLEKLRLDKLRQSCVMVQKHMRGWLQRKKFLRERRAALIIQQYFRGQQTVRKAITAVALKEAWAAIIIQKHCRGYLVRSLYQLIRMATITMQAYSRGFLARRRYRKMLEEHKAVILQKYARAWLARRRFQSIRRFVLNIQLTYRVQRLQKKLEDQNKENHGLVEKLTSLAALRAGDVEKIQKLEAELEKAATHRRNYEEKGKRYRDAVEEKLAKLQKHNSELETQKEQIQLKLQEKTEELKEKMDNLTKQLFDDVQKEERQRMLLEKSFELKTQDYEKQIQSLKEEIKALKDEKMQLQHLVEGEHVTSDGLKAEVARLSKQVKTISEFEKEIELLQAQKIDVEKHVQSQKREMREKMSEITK
Myo5c–HMM heavy chain (human Myo5c, amino acids 1–1108, C-terminal Flag) (human), sequence (Q9NQX4 1-1108): as above
T1 sequence (Q9NQX4 1-1108): as above

As to `Oc1c(Br)cc(Br)cc1-c1[nH]c(Br)c(Br)c1Br` [PBP, 2,3,4–tribromo–5–(3,5–dibromo–2–hydroxyphenyl)–1H–pyrrole], at Myo5c–HMM, the IC50 – broadly, the concentration that inhibits the measured activity by half – was determined as 280 ± 60 nM.

Molecule “Myo5c–HMM (CaM): Myo5c–HMM heavy chain co-produced and co-purified with calmodulin (from UniProt Q9NQX4 1-1108; P0DP23 1-149) (complex)” came in with a K (app actin) of the steady-state actin-activated ATPase (NADH-coupled assay, 30°C, 0.15 µM myosin), bare actin in assay [1] of 5.7 µM. In assay [2], this molecule registered a K (app actin) of the steady-state actin-activated ATPase (NADH-coupled assay, 30°C, 0.15 µM myosin), actin–Tpm1.6 cofilaments of 2.31 µM. In addition, in assay [3], the K (app actin) of the steady-state actin-activated ATPase (NADH-coupled assay, 30°C, 0.15 µM myosin), actin–Tpm3.1 cofilaments came out at 5.54 µM. For the same molecule, in assay [4], the K (app actin) of the steady-state actin-activated ATPase (NADH-coupled assay, 30°C, 0.15 µM myosin), actin–Tpm1.8 cofilaments came out at 3.24 µM.

“calmodulin (CaM) (from UniProt P0DP23 1-149) (natural protein)”: the stoichiometry N (CaM per heavy chain) in assay [5] was 6. Besides, the stoichiometry N (light chain:heavy chain) in assay [6] was 2.

B1: essential light chain Myl6 (natural protein, human (from the printed UniProt entry), UniProt P60660 1-151, looked up)
chain: MCDFTEDQTAEFKEAFQLFDRTGDGKILYSQCGDVMRALGQNPTNAEVLKVLGNPKSDEMNVKVLDFEHFLPMLQTVAKNKDQGTYEDYVEGLRVFDKEGNGTVMGAEIRHVLVTLGEKMTEEEVEMLVAGHEDSNGCINYEAFVRHILSG
notes: myosin essential light chain Myl6, Uniprot-ID P60660 (a human entry); the vector was prepared as in Reindl et al., 2022; also called ELC; source: baculovirus/Sf9, co-produced with Myo5c–HMM, CaM and Myl12b
With B1, the “stoichiometry N” value in assay [7] is ~1 light chain:heavy chain.

B2: regulatory light chain Myl12b (natural protein, human (from the printed UniProt entry), UniProt O14950 1-172, looked up)
chain: MSSKKAKTKTTKKRPQRATSNVFAMFDQSQIQEFKEAFNMIDQNRDGFIDKEDLHDMLASLGKNPTDAYLDAMMNEAPGPINFTMFLTMFGEKLNGTDPEDVIRNAFACFDEEATGTIQEDYLRELLTTMGDRFTDEEVDELYREAPIDKKGNFNYIEFTRILKHGAKDKDD
notes: myosin regulatory light chain 12B (Myl12b), Uniprot-ID O14950 (a human entry); the vector was prepared as in Reindl et al., 2022; also called RLC; source: baculovirus/Sf9, co-produced with Myo5c–HMM, CaM and Myl6
As for B2, the “stoichiometry N” value in assay [7] was ~3 light chain:heavy chain.
